# Measurements from paper PMC7914648 (Pharmaceuticals, 2021).
# “Also recorded” adds a separate entry of the source.
# Assays:
# [1] = Tissue distribution of An2-PAPTP and metabolites (liver, spleen, kidneys, heart) after i.v. injection; type: in vivo, mouse
# Description: The total amount of An2-PAPTP and its metabolites, summarized in Table 3, is comprehensive of all the species having the characteristic psoralenic UV spectrum obtained by the overall extraction procedure (i.e., from organic solvent extraction and basic hydrolysis of the remaining pellet), and represents and underestimation of the real concentration in the tissue (see Section 4.7.3). This is because no recovery yield correction was applied, since it was impossible to identify most of the species extracted, and because PAPTPL extracted after high-pH hydrolysis of the pellet could come either from An2-PAPTP or from metabolites. For quantification in HPLC analysis, all the psoralenic species were assumed to have the same molar extinction coefficient as PAPTPL, an assumption justified by the near-identity observed for all the available psoralen-containing molecules.
# (§1) The liver, spleen, kidneys, heart obtained from untreated mice were weighed and homogenized with PBS pH 7.4 (1 vol) with a potter. The pre-established amount of PAPTPL was added into tissue homogenates or blood and, after thorough vortexing, 5 vol of acetone were added and the sample was sonicated for 2 min. Subsequently, 5 vol of ACN containing 0.1% TFA were added and the sample was sonicated for 5 min. The sample was then centrifuged at 12,000× g for 7 min at 4 °C and the supernatant was collected, concentrated with a Hetovac VR-1, and analyzed via HPLC-UV.
# as §1, with “Brain and liver” for “The liver, spleen, kidneys, heart”, “analyte” for “PAPTPL”, “homogenates” for “homogenates or blood”, “trifluoracetic acid (TFA)” for “TFA”
# To quantify the amount of An2-PAPTP stuck in the tissue, the pellet remaining after the procedure described above was incubated with intermittent Vortexing at 60 °C for 3 h with PBS pH 12.5/ACN 1:1 and then centrifuged at 12,000× g for 7 min. HPLC-UV analysis of the supernatant, measuring PAPTPL hydrolyzed from the tissue, thus indirectly reflects the amount of An2-PAPTPL in the pellet (Scheme 3). Quantification was as described for PAPTPL.
# A stock solution of the peptide-PAPTP conjugates was prepared in DMSO. TAT-PAPTP was administered at 8 and 5 μmol/kg bw and An2-PAPTP only at 5 μmol/kg bw. The calculated quantity of drugs was diluted from the stock solution in saline or mouse plasma to a final volume of 200 μL.
# [2] = test system: mouse Red Blood Cells; experiment: Haemolysis assay; type: cell-based; conditions: 5 × 10^7 mouse erythrocytes in 1 mL PBS pH 7.4, 2, 1 or 0.5 µM, 15 min, absorbance 540 nm, n = 3
# Experimental: Haemolysis studies were conducted as described in [72]. Briefly, freshly withdrawn blood samples were centrifuged at 1000× g for 10 min to obtain erythrocytes; the pellet was then washed thrice with sterile PBS (pH 7.4). Erythrocytes (5 × 10^7 cells in 1 mL of PBS for each experimental condition) were incubated with 2, 1 or 0.5 µM An2-PAPTP or TAT-PAPTP for 15 min. The samples were then centrifuged and absorbance (Abs) of the supernatant was measured at 540 nm. Triton X-100 1% and PBS were used as positive and negative control, respectively.
# The percentage of haemolysis was calculated with the following equation:% haemolysis = [(Abssample − AbsPBS)/AbsTriton X-100 − AbsPBS)] × 100
# [3] = Stability in blood (hydrolysis, PAPTPL release); type: in vitro ADME; conditions: fresh heparinized C57BL mouse blood, 37 °C, 5 µM from 5 mM DMSO stock, HPLC-UV, % PAPTPL released relative to amount spiked, mean, n = 5 (An2-PAPTP) and 4 (TAT-PAPTP)
# Experimental: C57BL mice were anesthetized and blood was withdrawn from the jugular vein and heparinized. Blood samples (1 mL) were spiked with compound (5 µM; dilution from a 5 mM stock solution in DMSO) and incubated at 37 °C for 4 h (the maximum period allowed by blood stability). Aliquots were taken after 10 min, 30 min, 1 h, 2 h, and 4 h before HPLC-UV analysis.
# Each aliquot was treated as described above (Section 4.7.1). Compound stability in blood was expressed as % of PAPTPL released relative to the amount of An2-PAPTP and TAT-PAPTP spiked in the sample at time 0.
# [4] = Aqueous solubility determination; type: physicochemical
# Experimental: For TAT-PAPTP and An2-PAPTP, three distinct suspensions were prepared by diluting 25 mM stock solutions in DMSO to 100 μM, in 0.9% NaCl saline or water (DMSO < 0.4%). The suspensions were sonicated 5 min and immediately analyzed. The suspensions were then centrifuged at 12,000× g, 18 °C, for 1 and 2 h, and the supernatants were analyzed by HPLC/UV at the end of each centrifugation. An additional analysis was performed after 24 h of standing. The chromatographic peak areas were used to determine the concentration of the compound in the supernatants, based on calibration curves built using solutions in DMSO.
# [5] = Preliminary brain levels after intraperitoneal An2-PAPTP; type: in vivo, mouse; conditions: An2-PAPTP 5 µmol/kg bw i.p. in DMSO; sacrifice at 20 min or 1, 2, 4 h; four mice
# Experimental: In preliminary tests An2-PAPTP was administered at 5 µmol/kg bw by the intraperitoneal (i.p.) route, using dimethylsulfoxide (DMSO) as the vehicle. […] Many brain-penetrating peptides bind to biomolecules such as proteins and cell structures such as membranes. Furthermore, the absence of a flowing bloodstream at the injection site may cause a poorly soluble molecule to remain confined in the vicinity of the point of delivery. […] Collectively, these preliminary results led to the adoption of the intravenous route. An2-PAPTP (5 µmoles/kg bw, in plasma) was thus administered by tail vein injection to mice.
# [6] = An2-PAPTP 5 µmoles/kg bw i.v., all psoralenic species, 312 nm, no recovery correction, mean ± SEM, n = 5
# [7] = An2-PAPTP i.v., found in one animal out of four
# [8] = An2-PAPTP i.v., mean ± SEM, n = 4
# [9] = An2-PAPTP i.v., mean ± SEM, n = 5
# [10] = An2-PAPTP i.v., mean ± SEM, n = 6
compound,measurement,setting,value
CC[C@H](C)[C@H](NC(=O)Oc1ccc(CCCOc2ccc([P+](CCCc3ccc(OCCCCOc4c5ccoc5cc5oc(=O)ccc45)cc3)(c3ccccc3)c3ccccc3)cc2)cc1)C(=O)N[C@H](C(=O)N[C@@H](Cc1ccccc1)C(=O)N[C@@H](Cc1ccccc1)C(=O)N[C@@H](Cc1ccc(O)cc1)C(=O)NCC(=O)NCC(=O)N[C@@H](CO)C(=O)N[C@@H](CCCNC(=N)N)C(=O)NCC(=O)N[C@@H](CCCCN)C(=O)N[C@@H](CCCNC(=N)N)C(=O)N[C@@H](CC(N)=O)C(=O)N[C@@H](CC(N)=O)C(=O)N[C@@H](Cc1ccccc1)C(=O)N[C@@H](CCCCN)C(=O)N[C@H](C(=O)N[C@@H](CCC(=O)O)C(=O)N[C@@H](CCC(=O)O)C(=O)N[C@@H](Cc1ccc(O)cc1)C(=O)O)[C@@H](C)O)[C@@H](C)O [An2-PAPTP],"Heart Psoralenic Species (nmol/g Tissue), 15 min",[1]; [6],0.2 ± 0.1 nmol/g Tissue
same,"Kidney Psoralenic Species (nmol/g Tissue), 15 min",[1]; [6],5 ± 4 nmol/g Tissue
same,"Spleen Psoralenic Species (nmol/g Tissue), 15 min",[1]; [6],28 ± 9 nmol/g Tissue
same,"Liver Psoralenic Species (nmol/g Tissue), 15 min","[1]; An2-PAPTP 5 µmoles/kg bw i.v., all species with psoralenic UV spectrum, 312 nm, no recovery correction, mean ± SEM, n = 5",23 ± 3 nmol/g Tissue
same,degradation of the peptide chain by liver peptidases,"[1]; An2-PAPTP 5 µmoles/kg bw i.v., liver, in vivo",degraded the peptide chain nearly completely in little more than one hour
same,"Heart Psoralenic Species (% of Administered Dose), 30 min, single animal",[1]; [7],0.07 % of Administered Dose
same,"Heart Psoralenic Species (nmol/g Tissue), 30 min, single animal",[1]; [7],0.36 nmol/g Tissue
same,"Kidney Psoralenic Species (% of Administered Dose), 30 min",[1]; [8],0.32 ± 0.07 % of Administered Dose
same,"Spleen Psoralenic Species (% of Administered Dose), 30 min",[1]; [8],0.27 ± 0.09 % of Administered Dose
same,"Heart Psoralenic Species (% of Administered Dose), 15 min",[1]; [9],0.07 ± 0.01 % of Administered Dose
same,"Kidney Psoralenic Species (% of Administered Dose), 15 min",[1]; [9],1.2 ± 0.8 % of Administered Dose
same,"Spleen Psoralenic Species (% of Administered Dose), 15 min",[1]; [9],1.2 ± 0.3 % of Administered Dose
same,"Kidney Psoralenic Species (% of Administered Dose), 60 min",[1]; [10],0.31 ± 0.03 % of Administered Dose
same,"Spleen Psoralenic Species (% of Administered Dose), 60 min",[1]; [10],0.8 ± 0.2 % of Administered Dose
same,"Heart Psoralenic Species (% of Administered Dose), 60 min","[1]; An2-PAPTP i.v., n = 6",0 % of Administered Dose
same,"Heart Psoralenic Species (nmol/g Tissue), 60 min","[1]; An2-PAPTP i.v., n = 6",0 nmol/g Tissue
same,"Liver Psoralenic Species (nmol/g Tissue), 30 min","[1]; as above, 30 min, n = 4",17 ± 2 nmol/g Tissue
same,"Liver Psoralenic Species (nmol/g Tissue), 60 min","[1]; as above, 60 min, n = 6",11 ± 3 nmol/g Tissue
same,"Kidney Psoralenic Species (nmol/g Tissue), 30 min","[1]; as above, n = 4",1.3 ± 0.2 nmol/g Tissue
same,"Spleen Psoralenic Species (nmol/g Tissue), 30 min","[1]; as above, n = 4",4.3 ± 1.4 nmol/g Tissue
same,"Kidney Psoralenic Species (nmol/g Tissue), 60 min","[1]; as above, n = 6",1.2 ± 0.1 nmol/g Tissue
same,"Spleen Psoralenic Species (nmol/g Tissue), 60 min","[1]; as above, n = 6",11 ± 3 nmol/g Tissue
same,haemolysis (release of haemoglobin),[2],did not induce a measurable release of haemoglobin
same,hydrolyzed in mouse blood over 4 h (PAPTPL released),[3],about 60%
same,solubility in 10 mM phosphate buffer,"[4]; 10 mM phosphate buffer, supernatants after centrifugation, HPLC",precipitated
same,solubility in 0.9% NaCl saline,"[4]; 0.9% NaCl saline, kinetic, 25 mM DMSO stock diluted to 100 μM (DMSO < 0.4%), sonicated 5 min, centrifuged 12,000 × g 18 °C 1 and 2 h, supernatant HPLC/UV, detection limit 0.1 µM",precipitated in saline; also recorded: insoluble in saline
same,solubility in water,"[4]; water, kinetic, 25 mM DMSO stock diluted to 100 μM (DMSO < 0.4%), sonicated, centrifuged 12,000 × g 18 °C, supernatant HPLC/UV",above 100 μM
same,detection in brain after i.p. administration,[5],no An2-PAPTP or PAPTPL could be detected
